Numbering of substitutions follows the chain as printed. Names and notes keep the numbering of the source. Like-named read-outs stand apart in the source and are kept apart here.
T1: human BCMA (huBCMA) on cells (human, UniProt Q02223 1-184)
T1 chain: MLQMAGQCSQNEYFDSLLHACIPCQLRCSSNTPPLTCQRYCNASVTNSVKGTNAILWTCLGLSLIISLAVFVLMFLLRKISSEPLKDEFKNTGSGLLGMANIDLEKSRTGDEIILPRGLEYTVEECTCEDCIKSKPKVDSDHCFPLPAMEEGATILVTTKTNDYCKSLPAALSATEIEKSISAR

T2: rhuBCMA fusion protein (6xHis::Sumo::huBCMA(aa 5-51)::GGS::G3::Avi) (human)
T2 construct: the preparation also held C-terminally clipped forms; also called Sumo-BCMA; SumoBCMA
T2 chain: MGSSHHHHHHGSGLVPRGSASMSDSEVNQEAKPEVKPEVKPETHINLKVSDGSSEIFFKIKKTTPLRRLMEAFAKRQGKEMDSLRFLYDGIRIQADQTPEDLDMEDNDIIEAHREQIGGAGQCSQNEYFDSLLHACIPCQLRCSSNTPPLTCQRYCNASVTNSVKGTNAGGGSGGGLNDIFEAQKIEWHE

T3: rrat BCMA fusion protein (GS::6xHis::Sumo::ratBCMA(aa 2-49)::GGS::G3::Avi) (rat)
T3 chain: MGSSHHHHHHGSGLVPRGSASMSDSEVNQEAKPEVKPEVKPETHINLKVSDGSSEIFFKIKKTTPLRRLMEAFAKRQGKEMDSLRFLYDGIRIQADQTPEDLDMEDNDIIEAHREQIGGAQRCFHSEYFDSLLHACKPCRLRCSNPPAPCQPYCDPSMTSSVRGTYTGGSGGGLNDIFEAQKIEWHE

T4: TACI on transiently transfected cells (human, UniProt O14836 1-293)
T4 construct: whole, on cells; also called huTACI
T4 sequence (looked up): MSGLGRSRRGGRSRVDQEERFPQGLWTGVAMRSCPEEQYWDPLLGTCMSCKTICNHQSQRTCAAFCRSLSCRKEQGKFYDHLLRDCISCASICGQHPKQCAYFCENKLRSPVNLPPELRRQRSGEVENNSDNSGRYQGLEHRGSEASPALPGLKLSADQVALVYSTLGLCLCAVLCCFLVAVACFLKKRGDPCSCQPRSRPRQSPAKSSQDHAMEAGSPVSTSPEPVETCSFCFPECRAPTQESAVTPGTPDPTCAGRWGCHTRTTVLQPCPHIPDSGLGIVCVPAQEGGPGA

B1: 32B5-MCC-DM1 (antibody, V domains shown)
VH: EVQLLESGGALVQPGGSLRLSCAASGFTFSSYAMNWVRQAPGKGLEWVSAISVGGDTYYADSVKGRFTISRDNSKNTLYLHVNSLSAEDSAVYYCAKDQVTLVRGVWYYYGLDVWGQGTTVTVSS
VL: VIVLIQSPLSLPVTPGEPASISCRSSQSLLHSNGNNYLDWYLQKPGQSPHLLISLGSNRTSGVPDRFSGSGSGTDFTLKISRVEAEDVGFYYCMQALQPPRRFGQGTKLEIKR
notes: MCC-DM1 conjugate of '32B5'
B2: Ab-2 (29C12_mut) (antibody, human IgG1, kappa, V domains shown)
VH: B1 VH with A10G, H81Q, V82M, S86R, S90T, L102M
VL: B1 VL with V1D, L4M, I5T, N58Q, F90V
notes: Human IgG1; also called 29C12 CV2; 29C12cv2
B3: 32B5 (antibody, V domains shown)
VH: B1 VH
VL: B1 VL
notes: IgG2 or IgG4 as purified from hybridoma (32B5.1); later converted to human IgG1; an engineered version may be meant there; also called 32B5.1; Ab-10
B4: 35D2 (antibody, V domains shown)
VH: B1 VH with D56G, S86R, S90T, L102M
VL: B1 VL
notes: IgG2 or IgG4, purified from hybridoma supernatant; also called 35D2.1; Ab-15
B5: 29C12-MCC-DM1 (antibody, V domains shown)
VH: B1 VH with H81Q, V82M, S86R, S90T, L102M
VL: B1 VL with V1D, L4M, F90V
B6: Ab-3 (32B5_mut) (antibody, human IgG1, kappa, V domains shown)
VH: B1 VH with A10G, H81Q, S86R
VL: B1 VL with V1D, I5T, N58Q, F90V
notes: Human IgG1; also called 32B5 CV2; 32B5cv2
B7: 37B2 (antibody, V domains shown)
VH: B1 VH with S31N
VL: B1 VL
notes: IgG2 or IgG4, purified from hybridoma supernatant; also called 37B2.1; Ab-16
B8: 29C12 (antibody, V domains shown)
VH: B1 VH with H81Q, V82M, S86R, S90T, L102M
VL: B1 VL with V1D, L4M, F90V
notes: IgG2 or IgG4 as purified from hybridoma (29C12.1); later converted to human IgG1; an engineered version may be meant there; also called 29C12.1; Ab-8
B9: 2A1-PEG4-Mal-DM4 (antibody, V domains shown)
VH: EVQLVESGGGLVKPGRSLRLSCTASGFTFGDYALSWFRQAPGKGLEWVGVSRSKAYGGTTDYAASVKGRFTISRDDSKSFAYLQMNSLKTEDTAVYYCCSSGYSSGWTPFDYWGQGTLVTVSS
VL: not shown
modifications: PEG4-Mal-DM4 conjugated, sites not stated
B10: 2A1-MCC-DM1 (antibody, V domains shown)
VH: B9 VH
VL: not shown
modifications: MCC-DM1 conjugated, sites not stated
B11: 2A1CV5-MCC-DM1 (Ab-1 ADC) (antibody, human IgG1, lambda, V domains shown)
VH: B9 VH with R16G, T23A, F80T, C99A
VL: not shown
modifications: MCC-DM1 conjugated, sites not stated
B12: 2A1-S108R (antibody, V domains shown)
VH: B9 VH with S100R
VL: not shown
B13: 30E1 (antibody, V domains shown)
VH: EVQLLESGGGLVQPGGSLRLSCAASGFTFSSHAMSWVRQAPGKGLEWVSAISGGDGNTYYADSVKGRFAISRDNSKNVVYLQMNSLRAEDTAVYFCAKDLVGVVAGYYYYFGMDVWGQGTTVTVSS
VL: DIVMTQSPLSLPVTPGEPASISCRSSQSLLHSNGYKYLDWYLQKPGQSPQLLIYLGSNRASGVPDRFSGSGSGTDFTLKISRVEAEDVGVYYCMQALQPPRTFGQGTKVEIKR
notes: IgG2 or IgG4, purified from hybridoma supernatant; also called 30E1.1; Ab-9
B14: 32H3 (antibody, V domains shown)
VH: EVQLLESGGGLVQPGGSLRLSCAASGFTFSSYAMSWVRQAPGKGLKWVSAISGGAGNTYYADSVKGRFTISRDISKSTVYLQMTSLRAEDTAIYYCAKDGVGTTGGYFYYHGMDVWGQGTTVTVSS
VL: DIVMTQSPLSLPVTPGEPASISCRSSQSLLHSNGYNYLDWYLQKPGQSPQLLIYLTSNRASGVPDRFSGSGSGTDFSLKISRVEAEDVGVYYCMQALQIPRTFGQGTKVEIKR
notes: IgG2 or IgG4, purified from hybridoma supernatant; also called 32H3.1; Ab-12
B15: 1E1-PEG4-Mal-DM4 (antibody, V domains shown)
VH: QVQLVQSGAEVKKPGASVKVSCKASGYTFTGHYIHWVRQAPGQGLEWMGWIYPNSGGTNYAQKFQGRVTMTRDTSISTAYMELSRLRSDDSAVYYCAREGMVTGDYYYYRMDVWGQGTTVIVSS
VL: QPVLTQPPSASASLGASVTLTCSLSSGYSNYKVDWYQQRPGKGPRFVMRVGIGGIVGSKGDGIPDRFSVLGSGLNRYLTIKNIQEEDESDFHCGADHGSGNNFVYVFGTGTKVTVLG
B16: 1E1-MCC-DM1 (antibody, V domains shown)
VH: B15 VH
VL: B15 VL

How the values were obtained:
[1] = molecular target: T1, human BCMA (huBCMA) on cells; assay: cell-based or functional assay
[2] = molecular target: T1, human BCMA (huBCMA) on cells; assay: FACS on H929 cells (native BCMA, relative binding, indirect)
[3] = molecular target: T2, rhuBCMA fusion protein …; assay: Biacore, antibody captured, rhu BCMA analyte
[4] = molecular target: T3, rrat BCMA fusion protein …; assay: Biacore, antibody captured, rrat BCMA analyte
[5] = molecular target: T1, human BCMA (huBCMA) on cells; assay: FACS, hu BCMA
[6] = molecular target: T4, TACI on transiently transfected cells; assay: FACS, hu TACI
[7] = molecular target: T5, cynomolgus (Macaca fascicularis) BCMA on cells (cynomolgus (Macaca fascicularis), UniProt Q02223 1-184 (human entry)); assay: FACS, Cyno BCMA
T5 construct: also called cyno BCMA; cynomolgus BCMA

[8] = molecular target: T5, cynomolgus (Macaca fascicularis) BCMA …; assay: CynoBCMA O/N FACS
[9] = molecular target: T2, rhuBCMA fusion protein …; assay: Biacore, antibody captured, rhu BCMA analyte
[10] = molecular target: T3, rrat BCMA fusion protein …; assay: Biacore, antibody captured, rrat BCMA analyte
[11] = molecular target: T1, human BCMA (huBCMA) on cells; assay: cell-based or functional assay
[12] = molecular target: T1, human BCMA (huBCMA) on cells; assay: FACS, H929 cells

T5 sequence (Q02223 other isoform, or with tags, fused parts or gaps): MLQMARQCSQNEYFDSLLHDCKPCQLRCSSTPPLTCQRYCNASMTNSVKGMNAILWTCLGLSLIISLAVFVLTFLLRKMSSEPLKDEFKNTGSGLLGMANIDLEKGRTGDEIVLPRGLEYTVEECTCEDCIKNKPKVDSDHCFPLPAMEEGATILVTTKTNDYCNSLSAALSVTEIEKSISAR

Binder | MFI [5] | MFI [6] | MFI [7] | MFI [8] | further results
B1 | – | – | – | – | IC50, H929 cell growth (CellTiter-Glo, 96 h) [1]: 506 pM; EC50 [2]: 7 nM
B2 | – | – | – | – | Kd [3]: 1.11 nM; Kd [4]: 2.35 nM
B3 | 137000 MFI | 274 MFI | 257000 MFI | 108 MFI | –
B4 | 129000 MFI | 506 MFI | 198000 MFI | 152 MFI | –
B5 | – | – | – | – | IC50, H929 cell growth (CellTiter-Glo, 96 h) [1]: 390 pM
B6 | – | – | – | – | Kd [9]: 0.75 nM; Kd [10]: 2.07 nM
B7 | 83700 MFI | 1040 MFI | 136000 MFI | 104 MFI | –
B8 | 82600 MFI | 256 MFI | 97300 MFI | 110 MFI | –
B9 | – | – | – | – | IC50, CellTiter-Glo cell viability, H929 cells, 96 h [1]: 2.2 nM
B10 | – | – | – | – | IC50 (nM DM1), cell viability, EW36 [1]: 30 nM DM1; IC50 (nM DM1), cell viability, H929 [1]: 0.6 nM DM1; IC50 (nM DM1), cell viability, MM1R [1]: 3.9 nM DM1; IC50 (nM DM1), cell viability, MM1S [1]: 1 nM DM1; IC50 (nM DM1), cell viability, RAMOS [1]: 32 nM DM1; IC50 (nM DM1), cell viability, U266 [1]: 0.8 nM DM1; IC50, CellTiter-Glo cell viability, H929 cells, 96 h [1]: 2.4 nM
B11 | – | – | – | – | IC50 in an H929 tumor cell growth inhibition assay (antibody concentration) [1]: ~78 pM
B12 | – | – | – | – | ADCC EC50 [11]: 43 ng/mL; EC50 (read off the curve) [12]: ~200 ng/mL
B13 | 109000 MFI | 555 MFI | 78500 MFI | 130 MFI | –
B14 | 97700 MFI | 1360 MFI | 51200 MFI | 122 MFI | –
B15 | – | – | – | – | IC50, CellTiter-Glo cell viability, H929 cells, 96 h [1]: 0.68 nM
B16 | – | – | – | – | IC50, CellTiter-Glo cell viability, H929 cells, 96 h [1]: 0.63 nM
